Results from patent US20080293922A1 (POSCO, published 2008).

Biological target: T1, neuropilin-1 on MDA-MB-231 tumor cells (UniProt O14786 22-923, limits assumed)
T1 construct: whole, on cells
Assay: Binding of VEGF to MDA-MB-231 cells with or without Aβ peptides (data not shown)

binding result: binds
B1: Vascular endothelial growth factor VEGF165 (ligand)
chain: APMAEGGGQNHHEVVKFMDVYQRSYCHPIETLVDIFQEYPDEIEYIFKPSCVPLMRCGGCCNDEGLECVPTEESNITMQIMRIKPHQGQHIGEMSFLQHNKCECRPKKDRARQENPCGPCSERRKHLFVQDPQTCKCSCKNTDSRCKARQLELNERTCRCDKPRR
modifications: 125I label in the radioligand, co-aggregation, dissociation and trapping assays (position not given)
notes: 125I-VEGF was bought from Amersham; also called 125I-VEGF; 125I-VEGF165
